This note sets out measurements from US20130273029A1 (Novartis, published 2013).

B1: MOR12509 (antibody, human IgG1, kappa, V domains shown)
VH: QVQLVQSGAEVKKPGESLKISCKGSGYSFTNSWVAWVRQMPGKGLEWMGIIYPGNSDTIYSPSFQGQVTISADKSISTAYLQWSSLKASDTAMYYCARVHIIQPPSAWSYNAMDVWGQGTLVTVSS
VL: DIQMTQSPSSLSASVGDRVTITCRASQSITHYLNWYQQKPGKAPKLLIFGASNLQSGVPSRFSGSGSGTDFTLTISSLQPEDFATYYCQQAFVDPSTTFGQGTKVEIKR
notes: tested as IgG
B2: MOR12510 (antibody, human IgG1, kappa, V domains shown)
VH: B1 VH
VL: DIQMTQSPSSLSASVGDRVTITCRASQSISTYLNWYQQKPGKAPKLLIFGASNLQSGVPSRFSGSGSGTDFTLTISSLQPEDFATYYCQQDIDEPWTFGQGTKVEIKR
notes: tested as IgG
B3: MOR13870 (antibody, human IgG1, kappa, V domains shown)
VH: B1 VH with T30S, S32Y, V34I, N55T
VL: B2 VL with D91S, D93T, P95L, W96F
notes: tested as IgG
B4: MOR13871 (antibody, human IgG1, kappa, V domains shown)
VH: B1 VH with T30S, S32Y, V34I, N55S
VL: B2 VL with D91S, D93T, P95L, W96F
notes: tested as IgG
B5: MOR13868 (antibody, human IgG1, kappa, V domains shown)
VH: B1 VH with T30S, S32Y, V34I, N55L
VL: B2 VL with D91S, D93T, P95L, W96F
notes: tested as IgG
B6: MOR13869 (antibody, human IgG1, kappa, V domains shown)
VH: B1 VH with T30S, S32Y, V34I, N55G
VL: B2 VL with D91S, D93T, P95L, W96F
notes: tested as IgG

Positions count from the first letter of the chain named.

T4 sequence (Q61526 20-643): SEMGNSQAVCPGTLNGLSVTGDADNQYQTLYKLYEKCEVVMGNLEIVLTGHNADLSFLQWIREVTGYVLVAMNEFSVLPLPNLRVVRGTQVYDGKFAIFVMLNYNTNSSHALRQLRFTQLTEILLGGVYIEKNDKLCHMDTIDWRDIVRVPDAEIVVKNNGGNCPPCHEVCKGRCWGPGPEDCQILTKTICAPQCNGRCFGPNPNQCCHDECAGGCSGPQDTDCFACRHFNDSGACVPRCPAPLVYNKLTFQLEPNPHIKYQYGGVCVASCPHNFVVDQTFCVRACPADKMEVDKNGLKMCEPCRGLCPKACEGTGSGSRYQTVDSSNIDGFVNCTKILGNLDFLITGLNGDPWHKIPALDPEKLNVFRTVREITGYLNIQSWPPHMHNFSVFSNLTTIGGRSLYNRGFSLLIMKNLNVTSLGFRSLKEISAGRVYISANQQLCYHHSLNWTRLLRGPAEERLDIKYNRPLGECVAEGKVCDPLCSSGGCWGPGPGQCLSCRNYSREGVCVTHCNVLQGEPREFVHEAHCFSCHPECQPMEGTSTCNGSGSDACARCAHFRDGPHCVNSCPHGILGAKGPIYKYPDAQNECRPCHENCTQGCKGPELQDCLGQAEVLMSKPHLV
T3 sequence (G7PIG5 entry or part of it): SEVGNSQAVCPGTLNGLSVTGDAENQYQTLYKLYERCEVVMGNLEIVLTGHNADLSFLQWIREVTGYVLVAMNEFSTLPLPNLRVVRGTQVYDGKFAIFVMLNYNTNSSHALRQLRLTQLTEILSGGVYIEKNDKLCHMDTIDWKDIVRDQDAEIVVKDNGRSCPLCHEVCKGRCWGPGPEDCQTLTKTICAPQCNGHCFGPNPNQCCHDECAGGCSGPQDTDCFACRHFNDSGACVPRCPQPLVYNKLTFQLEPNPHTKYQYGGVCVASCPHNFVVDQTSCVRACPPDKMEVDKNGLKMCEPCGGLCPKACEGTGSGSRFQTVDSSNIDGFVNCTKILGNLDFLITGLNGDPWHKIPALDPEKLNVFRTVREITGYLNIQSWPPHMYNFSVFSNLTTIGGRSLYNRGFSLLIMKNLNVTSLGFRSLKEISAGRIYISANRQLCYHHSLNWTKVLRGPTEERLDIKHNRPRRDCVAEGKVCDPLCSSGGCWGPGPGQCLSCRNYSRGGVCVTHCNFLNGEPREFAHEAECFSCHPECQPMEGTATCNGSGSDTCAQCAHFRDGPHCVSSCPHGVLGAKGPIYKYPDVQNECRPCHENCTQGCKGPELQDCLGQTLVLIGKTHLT

For the first experiment, the target named is T1, Human HER3, endogenous, on human cancer cell lines (SK-Br-3, MCF7, BT-474) (human, UniProt P21860 20-1342). Briefly: cell-based or functional assay.
T1 sequence (P21860 20-1342): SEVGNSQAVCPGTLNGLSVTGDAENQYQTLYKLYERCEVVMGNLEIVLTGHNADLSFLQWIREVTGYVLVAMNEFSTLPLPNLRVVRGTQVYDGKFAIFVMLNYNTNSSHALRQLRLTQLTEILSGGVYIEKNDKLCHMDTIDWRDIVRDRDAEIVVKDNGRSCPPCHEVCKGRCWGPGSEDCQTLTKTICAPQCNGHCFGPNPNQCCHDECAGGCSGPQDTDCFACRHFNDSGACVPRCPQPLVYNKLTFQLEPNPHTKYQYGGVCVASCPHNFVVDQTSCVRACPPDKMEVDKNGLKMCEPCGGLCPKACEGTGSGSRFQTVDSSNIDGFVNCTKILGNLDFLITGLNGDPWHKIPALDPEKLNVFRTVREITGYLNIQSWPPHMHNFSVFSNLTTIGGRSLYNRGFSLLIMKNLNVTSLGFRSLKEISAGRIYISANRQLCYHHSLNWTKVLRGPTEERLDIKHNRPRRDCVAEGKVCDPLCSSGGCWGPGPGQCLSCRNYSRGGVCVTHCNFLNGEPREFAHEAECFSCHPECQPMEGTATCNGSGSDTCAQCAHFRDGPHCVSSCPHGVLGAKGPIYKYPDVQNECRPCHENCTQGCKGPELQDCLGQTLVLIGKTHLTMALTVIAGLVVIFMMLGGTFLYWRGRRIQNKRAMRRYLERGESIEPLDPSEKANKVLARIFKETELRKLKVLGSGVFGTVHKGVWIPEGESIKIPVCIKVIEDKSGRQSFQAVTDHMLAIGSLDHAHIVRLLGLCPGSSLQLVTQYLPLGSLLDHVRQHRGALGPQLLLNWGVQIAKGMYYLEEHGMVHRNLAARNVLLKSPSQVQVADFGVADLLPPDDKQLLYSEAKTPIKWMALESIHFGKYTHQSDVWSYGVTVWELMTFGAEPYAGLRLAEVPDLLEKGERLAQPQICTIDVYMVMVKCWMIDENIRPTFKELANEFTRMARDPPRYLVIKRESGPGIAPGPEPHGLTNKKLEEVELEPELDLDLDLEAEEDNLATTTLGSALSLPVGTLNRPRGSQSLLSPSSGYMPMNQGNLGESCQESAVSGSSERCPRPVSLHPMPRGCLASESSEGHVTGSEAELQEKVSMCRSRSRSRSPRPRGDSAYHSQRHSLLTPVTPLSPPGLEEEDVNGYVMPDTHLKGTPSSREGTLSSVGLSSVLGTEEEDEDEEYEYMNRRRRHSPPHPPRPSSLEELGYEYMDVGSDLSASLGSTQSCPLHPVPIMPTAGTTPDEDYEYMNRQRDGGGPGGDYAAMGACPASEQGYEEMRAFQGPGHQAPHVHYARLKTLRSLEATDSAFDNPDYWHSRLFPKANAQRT
B1: the “BT474 pHER3 % inhibition” value was determined as 84%, the “MCF7 pHER3 % inhibition” value turned out to be 70%, the “MCF7 pHER3 IC50” value worked out at 712 pM and the “SK-Br-3 pHER3 % inhibition” value was found to be 76%. In addition, the “SK-Br-3 pHER3 IC50” value turned out to be 483 pM.

In the case of B2, the “BT474 pHER3 % inhibition” value came out at 85%, the “BT474 pHER3 IC50” value was found to be 34 pM, the “MCF7 pHER3 % inhibition” value stood at 73% and the “MCF7 pHER3 IC50” value was determined as 450 pM. Also, the “SK-Br-3 pHER3 % inhibition” value amounted to 78% and the “SK-Br-3 pHER3 IC50” value amounted to 157 pM.

As for B3, the “BT474 pHER3 % inhibition” value is 66%, the “BT474 pHER3 IC50” value was 535 pM, the “MCF7 pHER3 % inhibition” value turned out to be 71% and the “MCF7 pHER3 IC50” value was determined as 84 pM. The “SK-Br-3 pHER3 % inhibition” value was determined as 81% and the “SK-Br-3 pHER3 IC50” value stood at 110 pM.

On to B4, for which the “BT474 pHER3 % inhibition” value amounted to 68%, the “BT474 pHER3 IC50” value worked out at 608 pM, the “MCF7 pHER3 % inhibition” value was determined as 74% and the “MCF7 pHER3 IC50” value is 43 pM. In addition, the “SK-Br-3 pHER3 % inhibition” value came out at 83% and the “SK-Br-3 pHER3 IC50” value was found to be 105 pM.

With B5, the “BT474 pHER3 % inhibition” value came to 68%, the “BT474 pHER3 IC50” value amounted to 894 pM, the “MCF7 pHER3 % inhibition” value came out at 75% and the “MCF7 pHER3 IC50” value came out at 189 pM. For the same molecule, the “SK-Br-3 pHER3 % inhibition” value was determined as 83% and the “SK-Br-3 pHER3 IC50” value was 205 pM.

As to B6, the “BT474 pHER3 % inhibition” value was 55%, the “BT474 pHER3 IC50” value worked out at 1330 pM, the “MCF7 pHER3 % inhibition” value turned out to be 64% and the “MCF7 pHER3 IC50” value came to 427 pM. Also, the “SK-Br-3 pHER3 % inhibition” value stood at 77% and the “SK-Br-3 pHER3 IC50” value turned out to be 263 pM.

For the next experiment, the target named is T1, Human HER3, endogenous, on human cancer …. Briefly: cell-based or functional assay. This is another data set of the same source.
As to B3, the “BT-474 pAkt (S473) % inhibition” value amounted to 77%, the “BT-474 pAkt (S473) IC50” value was determined as 424 pM, the “SK-Br-3 pAkt (S473) % inhibition” value is 91% and the “SK-Br-3 pAkt (S473) IC50” value came out at 76 pM.

For B4, the “BT-474 pAkt (S473) % inhibition” value was 83%, the “BT-474 pAkt (S473) IC50” value was determined as 1630 pM, the “SK-Br-3 pAkt (S473) % inhibition” value was 93% and the “SK-Br-3 pAkt (S473) IC50” value was found to be 97 pM.

On to B5, for which the “BT-474 pAkt (S473) % inhibition” value was 81%, the “BT-474 pAkt (S473) IC50” value is 537 pM, the “SK-Br-3 pAkt (S473) % inhibition” value turned out to be 92% and the “SK-Br-3 pAkt (S473) IC50” value was determined as 78 pM.

B6: the “BT-474 pAkt (S473) % inhibition” value was determined as 79%, the “BT-474 pAkt (S473) IC50” value amounted to 3040 pM, the “SK-Br-3 pAkt (S473) % inhibition” value is 91% and the “SK-Br-3 pAkt (S473) IC50” value turned out to be 212 pM.

For a further experiment the target is unchanged. Briefly: cell-based or functional assay. The source holds these as a separate data set.
On to B1, for which the “MCF7 proliferation % inhibition” value came out at 24%, the “MCF7 proliferation IC50” value came to 1.47 nM, the “SK-Br-3 proliferation % inhibition” value is 45% and the “SK-Br-3 proliferation IC50” value was 0.572 nM.

As to B2, the “MCF7 proliferation % inhibition” value was 25%, the “MCF7 proliferation IC50” value amounted to 0.483 nM, the “SK-Br-3 proliferation % inhibition” value came out at 44% and the “SK-Br-3 proliferation IC50” value is 0.355 nM.

Turning to B3, the “BT-474 proliferation % inhibition” value was found to be 43%, the “BT-474 proliferation IC50” value came out at 0.539 nM, the “MCF7 proliferation % inhibition” value came to 48% and the “MCF7 proliferation IC50” value turned out to be 0.061 nM. Moreover, the “SK-Br-3 proliferation % inhibition” value was determined as 39% and the “SK-Br-3 proliferation IC50” value stood at 1.14 nM.

Take B4: the “BT-474 proliferation % inhibition” value was 43%, the “BT-474 proliferation IC50” value is 1 nM, the “MCF7 proliferation % inhibition” value is 58% and the “SK-Br-3 proliferation % inhibition” value was 32%. For the same molecule, the “SK-Br-3 proliferation IC50” value was 1.29 nM.

On to B5, for which the “BT-474 proliferation % inhibition” value amounted to 39%, the “BT-474 proliferation IC50” value worked out at 1.72 nM, the “MCF7 proliferation % inhibition” value was found to be 58% and the “SK-Br-3 proliferation % inhibition” value is 29%. The “SK-Br-3 proliferation IC50” value was 0.251 nM.

In the case of B6, the “BT-474 proliferation % inhibition” value was determined as 28%, the “BT-474 proliferation IC50” value was 10.6 nM, the “MCF7 proliferation % inhibition” value was 52% and the “SK-Br-3 proliferation % inhibition” value amounted to 24%. In addition, the “SK-Br-3 proliferation IC50” value stood at 5.41 nM.

The target of a further experiment is T2, Hu HER3: CD33-[Human HER3, residues 20-640]-TAG (human, UniProt P21860 20-640).
T2 construct: also called hu HER3-Tag; HER3-Tag; not shown: C-terminal TAG (e.g., FLAG TAG)
T2 sequence (P21860 20-640): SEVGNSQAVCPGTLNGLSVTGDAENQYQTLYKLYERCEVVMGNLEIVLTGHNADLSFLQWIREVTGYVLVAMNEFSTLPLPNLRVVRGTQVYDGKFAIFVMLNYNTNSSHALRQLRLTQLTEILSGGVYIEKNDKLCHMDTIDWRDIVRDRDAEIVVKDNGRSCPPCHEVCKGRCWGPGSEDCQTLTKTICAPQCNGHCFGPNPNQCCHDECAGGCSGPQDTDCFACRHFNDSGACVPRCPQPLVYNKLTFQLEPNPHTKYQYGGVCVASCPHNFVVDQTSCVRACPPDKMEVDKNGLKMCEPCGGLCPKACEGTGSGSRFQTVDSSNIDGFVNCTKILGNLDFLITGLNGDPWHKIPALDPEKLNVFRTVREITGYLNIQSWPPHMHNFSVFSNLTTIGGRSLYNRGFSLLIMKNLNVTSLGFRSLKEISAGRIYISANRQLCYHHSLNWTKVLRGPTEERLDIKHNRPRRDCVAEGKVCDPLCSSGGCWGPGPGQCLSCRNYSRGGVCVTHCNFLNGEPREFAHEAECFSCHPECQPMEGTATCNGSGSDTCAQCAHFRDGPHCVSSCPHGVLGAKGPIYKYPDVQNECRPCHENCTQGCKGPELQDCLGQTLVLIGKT
Briefly: SET, IgG vs soluble HER3-Tag. Here is the method: (§1) Affinity determination in solution was essentially performed as previously described (Friguet et al., (1985) J Immunol Methods 77:305-19). In order to improve the sensitivity and accuracy of the SET method, it was transferred from classical ELISA to ECL based technology (Haenel et al., (2005) Anal Biochem 339:182-84).
(§2) The data was evaluated with XLfit software (ID Business Solutions) applying customized fitting models.
(§3) Antibody affinity was determined by solution equilibrium titration (SET) as described above. The results are summarized in Table 3 and example titration curves for MOR12616 and MOR12925 are contained in FIG. 1.
B1 yielded a dissociation constant Kd of 0.078 nM.

B2 yielded a Kd of 0.055 nM.

Turning to B3, binding was put at a Kd of 0.173 nM.

For the molecule B4, the Kd was determined as 0.193 nM.

Molecule B5 had a Kd of 0.133 nM.

For the molecule B6, the dissociation constant (Kd) came to 0.23 nM.

The next experiment has as its target T3, Cyno HER3: CD33-[Cyno HER3, residues 20-643]-TAG (cynomolgus, UniProt G7PIG5 20-643).
T3 construct: also called cy HER3-Tag; not shown: C-terminal TAG (e.g., FLAG TAG)
Briefly: SET, IgG vs soluble HER3-Tag. The method, then:
as §1, §2, §3
As to B1, the affinity, expressed as Kd, was 0.32 nM.

In the case of B2, the affinity, expressed as Kd, was 0.4 nM.

The next experiment has as its target T4, Mu HER3: CD33-[Murine HER3, residues 20-643]-TAG (murine, UniProt Q61526 20-643).
T4 construct: also called mu HER3-Tag; not shown: C-terminal TAG (e.g., FLAG TAG)
Briefly: SET, IgG vs soluble HER3-Tag. Here is the method: as §1, §2, §3
Take B1: the Kd came to 0.25 nM.

For the molecule B2, the Kd was 0.2 nM.

The target of the next experiment is T5, Rat HER3: CD33-[Rat HER3, residues 20-643]-TAG (rat, UniProt Q62799 20-643).
T5 construct: also called ra HER3-Tag; not shown: C-terminal TAG (e.g., FLAG TAG)
T5 sequence (Q62799 20-643): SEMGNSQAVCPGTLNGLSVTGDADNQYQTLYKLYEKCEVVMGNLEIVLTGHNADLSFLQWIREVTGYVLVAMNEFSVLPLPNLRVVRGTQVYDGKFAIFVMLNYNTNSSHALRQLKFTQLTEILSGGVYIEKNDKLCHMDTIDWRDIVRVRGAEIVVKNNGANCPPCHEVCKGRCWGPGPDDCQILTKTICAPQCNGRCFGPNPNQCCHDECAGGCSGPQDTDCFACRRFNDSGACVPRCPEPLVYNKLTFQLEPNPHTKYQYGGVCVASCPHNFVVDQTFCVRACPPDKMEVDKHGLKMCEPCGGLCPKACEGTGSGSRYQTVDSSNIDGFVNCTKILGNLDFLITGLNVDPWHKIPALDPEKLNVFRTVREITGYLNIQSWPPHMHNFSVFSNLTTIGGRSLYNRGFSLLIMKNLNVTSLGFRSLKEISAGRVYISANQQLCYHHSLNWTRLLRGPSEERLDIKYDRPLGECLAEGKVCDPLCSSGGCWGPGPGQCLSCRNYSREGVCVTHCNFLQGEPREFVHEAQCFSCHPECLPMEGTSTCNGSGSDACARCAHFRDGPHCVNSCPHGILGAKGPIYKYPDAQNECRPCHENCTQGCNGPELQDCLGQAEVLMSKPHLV
Briefly: SET, IgG vs soluble HER3-Tag. The method, then: as §1, §2, §3
Turning to B1, the dissociation constant Kd is 0.48 nM.

Consider B2, for which the affinity, expressed as Kd, was 0.75 nM.

One may read the Kd as a measure of binding affinity in units of concentration.
